In PMC7855469:

Target: radial spoke protein 9 (RSP9) (C. reinhardtii)
Assay: cryo-EM structure

stoichiometry N: 2
Substance: radial spoke protein 9 (RSP9) (natural protein)
